The target in experiment [1] is human CD16A-158V ECD fused to monomeric Fc (human) (UniProt P08637). The experiment is described as follows: SPR (Biacore T200), receptor captured, 1:1 model. On the technique in general: In SPR one partner is held on a chip, and binding of the other changes the refractive index at the surface.
Experiment [2] addresses human CD16A-158F ECD fused to monomeric Fc (human) (UniProt P08637). In words: SPR (Biacore T200), receptor captured, 1:1 model.

Here are results for 3 substances from patent publication US20240294647A1.

human CD16A-158F ECD fused to monomeric Fc (human), sequence (P08637 17-208): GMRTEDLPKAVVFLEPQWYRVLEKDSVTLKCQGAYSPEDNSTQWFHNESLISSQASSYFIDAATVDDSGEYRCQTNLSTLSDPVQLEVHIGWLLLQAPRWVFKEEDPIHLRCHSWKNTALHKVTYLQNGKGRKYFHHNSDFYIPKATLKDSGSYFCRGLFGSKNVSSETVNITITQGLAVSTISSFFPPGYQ
human CD16A-158V ECD fused to monomeric Fc (human), sequence (P08637 17-208 F176V): as the sequence (P08637 17-208) above, with F160V counted along it

“human IgG1 Fc (enhanced, S239D/I332E) (antibody)”: in experiment [1], the Kd – broadly, the free concentration of one partner at which half of the binding sites on the other are occupied at equilibrium, for simple one-to-one binding – was 0.0135 µM; the koff (in general, the first-order rate constant of dissociation) amounted to 0.00639 s⁻¹; the on-rate (kon) (commonly the second-order rate constant of association) was determined as 474000 M⁻¹ s⁻¹.
Consider “human IgG1 Fc (silenced, L234F/L235E/D265A) (antibody)”, for which, in experiment [2], the Kd amounted to 34.7 µM, the dissociation rate constant (koff) was found to be 0.71 s⁻¹ and the kon came out at 20400 M⁻¹ s⁻¹.
As for human IgG1 Fc (wildtype) (antibody), in experiment [1], the Kd is 0.424 µM, the koff was 0.00995 s⁻¹ and the kon was determined as 23500 M⁻¹ s⁻¹. In experiment [2], this substance registered a Kd of 2.72 µM, a koff of 0.0675 s⁻¹ and a kon of 24800 M⁻¹ s⁻¹.
